# Measured values as given in US9738880B2, “Lysosomal protein targeting sequence and therapeutic applications of same” (Children's Hospital Medical Center, priority 2013, dated 2017).
# Entries after “also recorded” stand apart in the source; their conditions may differ.
# Experiments:
# ldLIMP2 = biological target: T1, ldLIMP2 (Homo sapiens, UniProt Q14108); assay: Fluorescence polarization binding and competition of DDQRLLL GCase peptides to ldLIMP2; conditions: ldLIMP2 fixed at 1000 nM; FIG. 13
# T1 construct: Purified luminal domain LIMP-2 (1d-LIMP2) was custom made (Sino Biological Inc., PRC.); purchased Sino Biological Inc
# T1 sequence (Q14108 28-433 limits assumed): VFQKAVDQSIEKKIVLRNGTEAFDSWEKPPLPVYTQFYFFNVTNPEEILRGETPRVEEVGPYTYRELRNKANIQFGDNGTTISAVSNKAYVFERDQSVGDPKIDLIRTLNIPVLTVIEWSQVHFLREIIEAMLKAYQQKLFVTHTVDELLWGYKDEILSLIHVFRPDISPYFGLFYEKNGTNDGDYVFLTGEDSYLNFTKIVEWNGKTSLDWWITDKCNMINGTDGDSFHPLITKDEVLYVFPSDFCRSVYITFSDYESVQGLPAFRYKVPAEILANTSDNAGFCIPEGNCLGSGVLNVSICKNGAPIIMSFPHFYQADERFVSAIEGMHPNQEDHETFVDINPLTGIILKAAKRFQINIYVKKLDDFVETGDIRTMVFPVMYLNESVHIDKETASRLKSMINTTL
# Method: FIG. 13A-FIG. 13B: Competition and binding of fluorescent labeled or unlabeled DDQRLLL (SEQ ID NO 14) GCase peptides to ldLIMP2. FIG. 13A depicts the δmP of the WT (DDQRLLL (SEQ ID NO 14)) or variously alanine substituted labeled peptides were plotted against the corresponding unlabeled peptide competitors. Note that the fixed ldLIMP2 concentration was 1000 nM or 20 times that used in similar studies (FIG. 7A-FIG. 7C). For all peptides the δmP were near or at background levels. FIG. 13B depicts the binding δmP for the various peptides as in FIG. 13A. The signals were near background levels for all peptides using concentrations 5 to 10 times that for DSPIIV (SEQ ID NO 15) and with a 20 times greater LIMP2 fixed concentration.
# Fluorescence Polarization: The DSPIIV (SEQ ID NO 15) and its mutants, and DDQRLLL (SEQ ID NO 14) peptides (FITC labeled or non-labeled) were synthesized (American Peptide Co., Vista, Calif.). Lyophilized peptides were solubilized in acetonitrile and then were diluted at least 10,000-fold into the reactions for fluorescence polarization assessments. The reactions were done at least in duplicate at various peptide and LIMP-2 concentrations (SpectraMax M5, Molecular Device). Fluorescence polarization data were collected and analyzed with SoftMax Pro 5.0 software. Reaction mixtures contained 100 mM phosphate, pH 6.8 and 1 mM DTT.
# GCase binding to ldLIMP2 = biological target: T2, GCase binding to ldLIMP2 (Homo sapiens, UniProt Q14108); assay: Competitive immunoprecipitation of GCase with ldLIMP2 at increasing molar ratios of peptide
# T2 construct: Purified luminal domain LIMP-2 (1d-LIMP2) was custom made (Sino Biological Inc., PRC.); purchased Sino Biological Inc
# T2 sequence (Q14108 28-433 limits assumed): T1 sequence (Q14108 28-433 limits assumed)
# Method: FIG. 8A-FIG. 8C: Immunoprecipitation of GCase in the presence of ldLIMP2 and increasing molar ratios of the WT (DSPIIV (SEQ ID NO 15)) peptide. FIG. 8A depicts immunoprecipitation of GCase and LIMP-2. Purified WT GCase was preincubated with purified ldLIMP2 in a molar ratio of 1:1. Then, unlabeled DSPIIV (SEQ ID NO 15) was added in varying molar excesses (0 to 5×, top of figure) over GCase, incubated, and then immunoprecipitated with Protein G-coupled anti-LIMP-2 antibody beads. The beads were then eluted and the eluants were analyzed for GCase and ldLIMP2 on Western blots using the specified antibodies. […] In the bottom panel, ldLIMP2 recovery was the same at all peptide ratios. FIG. 8B depicts immunoprecipitation of GCase and LIMP-2. Purified ldLIMP2 was preincubated with unlabeled WT peptide at various molar ratios. Then, purified WT GCase was added in a 1:1 molar ratio with ldLIMP2, incubated, and then immunoprecipitated and processed as in FIG. 8A. […] FIG. 8C depicts immunoprecipitation of GCase and LIMP-2. Purified WT GCase was preincubated with purified ldLIMP2 in a molar ratio of 1:1. Then peptide DDQRLLL, a potential candidate for the GCase ligand for ldLIMP2, was added in varying molar excesses over WT GCase, incubated, and then immunoprecipitated and processed as in FIG. 8A. […] DDQRLLL (SEQ ID NO 14) is a dileucine peptide outside of the localized targeting region of DSPIIVDITKD (SEQ ID NO 3) (see FIG. 3).
# FIG. 14A-FIG. 14B: Immunoprecipitation of GCase in the presence of ldLIMP2 and increasing molar ratios of the WT (DDQRLLL (SEQ ID NO 14)) peptide. In FIG. 14A or FIG. 14B, ldLIMP2 and DDQRLLL (SEQ ID NO 14) were incubated before (as shown in FIG. 14A) or together with (as shown in FIG. 14B) GCase and analyzed as in FIG. 8A-FIG. 8C.
# Immunoprecipitation and Competition Studies: To further evaluate the interaction of ldLIMP-2, WT GCase, and the DSPIIV (SEQ ID NO 15) peptide, competitive immunoprecipitation experiments were conducted using increasing concentrations of the WT peptide in competition with GCase for binding (FIG. 8A). […]
substance,measurement,setting,value
DDQRLLL (GCase di-leucine sequence),"binding to ldLIMP2 (δmP), in words",ldLIMP2,lack of binding; also recorded: little or no binding
same,"competition of bound GCase off ldLIMP2, in words","GCase binding to ldLIMP2; GCase preincubated with ldLIMP2 1:1, then peptide 0 to 5× molar excess",did not compete GCase off of ldLIMP2
same,"competition with GCase for ldLIMP2 binding, in words","GCase binding to ldLIMP2; ldLIMP2, peptide and GCase incubated together, up to 5× molar excess",did not complete with GCase; also recorded: does not compete with GCase
same,"prevention of GCase binding to ldLIMP2, in words","GCase binding to ldLIMP2; peptide preincubated with ldLIMP2 before GCase was added, up to 5× molar",did not complete with GCase; also recorded: does not compete with GCase
